Results reported in article PMC3733885, “Structures of an Apo and a Binary Complex of an Evolved Archeal B Family DNA Polymerase Capable of Synthesising Highly Cy-Dye Labelled DNA”.

Molecular target: T1, Pfu-E10 DNA polymerase (evolved Pfu polB variant) (Pyrococcus furiosus, UniProt P61875 1-775, R407I)
T1 sequence: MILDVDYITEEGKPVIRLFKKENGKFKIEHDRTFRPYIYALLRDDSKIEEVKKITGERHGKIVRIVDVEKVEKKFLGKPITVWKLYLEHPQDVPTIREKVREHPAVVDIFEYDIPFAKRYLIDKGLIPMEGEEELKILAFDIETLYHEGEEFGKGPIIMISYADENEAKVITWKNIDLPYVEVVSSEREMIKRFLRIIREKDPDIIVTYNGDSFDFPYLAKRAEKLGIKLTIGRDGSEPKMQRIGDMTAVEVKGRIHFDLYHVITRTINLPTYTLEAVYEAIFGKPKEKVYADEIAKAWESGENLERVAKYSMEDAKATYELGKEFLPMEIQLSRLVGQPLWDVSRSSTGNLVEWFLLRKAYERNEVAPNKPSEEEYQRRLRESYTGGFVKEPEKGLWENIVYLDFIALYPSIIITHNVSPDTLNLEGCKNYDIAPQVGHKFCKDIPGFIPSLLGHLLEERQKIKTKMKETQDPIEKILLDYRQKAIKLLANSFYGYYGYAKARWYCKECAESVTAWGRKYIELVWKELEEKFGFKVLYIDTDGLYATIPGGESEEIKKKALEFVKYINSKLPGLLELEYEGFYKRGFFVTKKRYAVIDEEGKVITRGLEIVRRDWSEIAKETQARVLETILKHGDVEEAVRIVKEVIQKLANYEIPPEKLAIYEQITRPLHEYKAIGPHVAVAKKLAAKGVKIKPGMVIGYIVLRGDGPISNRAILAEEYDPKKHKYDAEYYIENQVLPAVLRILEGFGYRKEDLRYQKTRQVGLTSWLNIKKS
Test: X-ray crystallography (2.9 A); binary complex; 10 mM dCTP in crystallisation medium but no dNTP or metal ion seen at active site; Complex: 20 mM Tris, 50 mM NaCl, 5 mM MgCl2, 5% glycerol, 1 mM dCTP, 1:5 protein:DNA, 4 C overnight; crystals: 0.1 M Na cacodylate pH 6.5, 0.1 M Na citrate, 30% isopropanol, 10 mM dCTP
Conditions: protein: recombinant; 5' overhang 3 nt (template)

B1: primer:template duplex (crystal) (dsDNA)
DNA 1: ACGGGTAAGCA
DNA 2: TGCTTACC
modifications: 3'-terminal C of primer is 2',3'-dideoxycytidine (DOC)
B1: binds.
